Consider six proteins from publication PMC11414720, “Molecular basis of TMED9 oligomerization and entrapment of misfolded protein cargo in the early secretory pathway” (Science Advances, 2024).

Substitutions are numbered along the chain they refer to. Names and notes keep the numbering of the source. Values joined by “and” are separate entries in the source; they are usually repeats but may differ in a detail not shown here. Equal values may be shown once.

Data set [1] concerns the molecule itself. Put plainly: SEC; gel filtration of overexpressed protein in octyl-β-glucoside, a harsher detergent. On the technique in general: In gel filtration, larger molecules generally elute earlier.
Data set [2] concerns the molecule itself. Put plainly: cryo-EM structure; purified TMED9 at 1.7 mg/ml in 20 mM tris pH 8.0, 150 mM NaCl, 0.02% LMNG+CHS; octamer refined with C2 symmetry, dodecamer with no symmetry.
Data set [3] concerns the molecule itself. Description: mass photometry; Refeyn TwoMP; samples in 0.003% LMNG, 0.0003% CHS diluted from 7 μM into 25 mM Hepes pH 7.4, 150 mM KCl, 1 mM DTT, measured within 10 s.
Data set [4] concerns the molecule itself. Put plainly: SEC; Superose 6 gel filtration of TMED9 purified on anti-FLAG resin in LMNG+CHS (20 mM tris pH 8.0, 150 mM NaCl); solubilization by digitonin or glyco-diosgenin gave a similar size distribution.

B1: full-length human TMED9 (transmembrane emp24 domain 9), FLAG-tagged (receptor, UniProt Q9BVK6 38-235, looked up)
chain: LYFHIGETEKKCFIEEIPDETMVIGNYRTQLYDKQREEYQPATPGLGMFVEVKDPEDKVILARQYGSEGRFTFTSHTPGEHQICLHSNSTKFSLFAGGMLRVHLDIQVGEHANDYAEIAAKDKLSELQLRVRQLVEQVEQIQKEQNYQRWREERFRQTSESTNQRVLWWSILQTLILVAIGVWQMRHLKSFFEAKKLV
notes: TMED9 (transmembrane emp24 domain 9), human, full length; Seen as octamer, dodecamer and higher-order oligomers; the rows are of the chain with itself; TMED9 has a signal peptide; No cleavage of the tag is described; also called WT TMED9; recombinant TMED9; source: Expi293F, transiently transfected, purified in LMNG+CHS (anti-FLAG resin, Superose 6 gel filtration); not shown: FLAG, N-terminal, …
By stoichiometry N is commonly meant the number of molecules, sites or subunits per partner or assembly. With B1, the “stoichiometry N” value was 2 in data set [1]; 8 and 12 in data set [2]; at least 8 in data set [3].

B2: TMED9 Q177A (receptor, human, UniProt Q9BVK6 38-235, looked up)
chain: B1 chain with Q140A
notes: TMED9, human, mutant of the full-length protein; also called CC interface mutation Q177A
With B2, the binding result in data set [4] is “binds”.

B3: TMED9 W205A (receptor, human, UniProt Q9BVK6 38-235, looked up)
chain: B1 chain with W168A
notes: TMED9, human, mutant of the full-length protein; also called CC interface mutation W205A
Consider B3, for which the binding result in data set [4] is recorded as “binds”.

B4: TMED9 E190R (receptor, human, UniProt Q9BVK6 38-235, looked up)
chain: B1 chain with E153R
notes: TMED9, human, mutant of the full-length protein; also called CC domain mutation E190R
Take B4: the binding result in data set [3] was “binds”.

B5: TMED9 R191E (receptor, human, UniProt Q9BVK6 38-235, looked up)
chain: B1 chain with R154E
notes: TMED9, human, mutant of the full-length protein; also called CC interface mutation R191E
On to B5, for which the binding result in data set [4] is “binds”.

B6: TMED9 R223E (for gel filtration and mass photometry) (receptor, human, UniProt Q9BVK6 38-235, looked up)
chain: B1 chain with R186E
notes: TMED9, human, mutant of the full-length protein
B6: the binding result in data set [3] is recorded as “binds”.
